Publication PMC8727931, “The crystal structure of the FAM134B–GABARAP complex provides mechanistic insights into the selective binding of FAM134 to the GABARAP subfamily” (FEBS Open Bio, 2021)
No end group written: not given here.

B1: Trx-tagged FAM134B LIR (aa 451-476) (domain or fragment, UniProt Q9H6L5 451-476, looked up)
chain: EGDDFELLDQSELDQIESELGLTQDQ
modifications: also: Trx-tagged
notes: FAM134B (reticulophagy regulator 1), LIR and C-terminal extension, residues 451-476; 451-476 is what the results give for FAM134B LIR; Named 'Trx-tagged FAM134B' for ITC; I take the same construct for SEC-MALS; source: E. coli BL21 (DE3), purified (Ni2+-NTA, size-exclusion chromatography); not shown: Trx-His6, N-terminal, kept
B2: human FAM134A fragment (residues 488-513) (domain or fragment)
chain: TTEDFELLDQGELEQLNAELGLEPET
notes: FAM134A, human, residues 488-513; source: E. coli BL21 (DE3), purified

Experiments:
Conditions in all cases: both partners purified
[1] = target: T1, GABARAP (recombinant, for ITC, SEC and crystallization) (UniProt Q9DCD6 1-117); test: ITC; VP-ITC, 25 °C; 50 mM Tris/HCl pH 7.5, 100 mM NaCl, 1 mM DTT, 1 mM EDTA; GABARAP or LC3A (350 uM) injected into Trx-tagged FAM134B (35 uM) in the cell; one-site binding model
T1 construct: GABARAP; also called recombinant GABARAP protein; source: E. coli BL21 (DE3), purified

[2] = target: T2, LC3A (recombinant, for ITC) (UniProt Q91VR7 1-121); test: as above
T2 construct: LC3A; source: E. coli BL21 (DE3), purified

[3] = target: T3, GABARAPL1 (UniProt Q8R3R8 1-117); test: SEC-MALS; Superose 12 10/300GL column; 100 mM NaCl, 50 mM Tris/HCl pH 7.5, 1 mM DTT, 1 mM EDTA; proteins mixed at a 1:1 molar ratio
T3 construct: GABARAPL1; source: E. coli BL21 (DE3), purified

[4] = target: LC3B (UniProt Q9CQV6 1-120); test: as above
[5] = target: T3, GABARAPL1; test: SEC; FAM134A mixed with GABARAPL1 or LC3B at a 1:1 molar ratio; qualitative

T1 sequence (Q9DCD6 whole entry): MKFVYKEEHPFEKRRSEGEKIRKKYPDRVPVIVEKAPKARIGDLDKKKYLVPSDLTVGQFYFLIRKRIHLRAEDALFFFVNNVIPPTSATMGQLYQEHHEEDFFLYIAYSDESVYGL

Binder	Kd [1] [nM]	Kd [2] [nM]	binding result [3]	binding result [4]	binding result [5]
B1	42	~376	binds	binds	–
B2	–	–	–	–	binds
